Molecular target: His-tagged human GFRAL (recombinant soluble GFRAL protein, R&D catalogue no. 9647-GR-050) (human) (UniProt Q6UXV0)
Assay: SPR sandwich assay: row antibody captured via anti-Fc, GFRAL antigen added, then mAbQ injected as analyte (competitor: mAb Q)

His-tagged human GFRAL (recombinant soluble GFRAL protein, R&D catalogue no. 9647-GR-050) (human), sequence (Q6UXV0 19-351): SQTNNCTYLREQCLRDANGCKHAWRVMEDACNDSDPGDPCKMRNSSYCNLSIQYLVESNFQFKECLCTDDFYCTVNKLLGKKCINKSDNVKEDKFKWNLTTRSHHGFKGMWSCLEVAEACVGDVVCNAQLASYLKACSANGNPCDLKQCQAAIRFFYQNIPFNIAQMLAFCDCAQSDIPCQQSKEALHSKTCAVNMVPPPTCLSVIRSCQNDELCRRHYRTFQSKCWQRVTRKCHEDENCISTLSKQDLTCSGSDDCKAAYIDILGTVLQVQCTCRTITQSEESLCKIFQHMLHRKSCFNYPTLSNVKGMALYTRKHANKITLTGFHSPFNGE

IgG4PE (negative control) (antibody) was tested, and the resonance units after mAbQ injection (resonance units) was 4.
